Experimental data published in patent publication US6835814 (Eli Lilly, dated 2004).

T1: FLINT (FAS Ligand Inhibitory Protein), mature human FLINT (human, UniProt O95407 30-300)
T1 construct: also called mature FLINT
T1 sequence: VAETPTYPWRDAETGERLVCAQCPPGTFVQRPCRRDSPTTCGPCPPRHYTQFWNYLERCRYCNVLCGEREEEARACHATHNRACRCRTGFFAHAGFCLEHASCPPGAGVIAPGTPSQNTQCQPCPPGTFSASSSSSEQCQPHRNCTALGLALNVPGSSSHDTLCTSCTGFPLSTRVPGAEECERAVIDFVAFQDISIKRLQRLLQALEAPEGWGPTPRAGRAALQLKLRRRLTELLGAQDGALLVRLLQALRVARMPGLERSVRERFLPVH

B1: FasLigand (monomer) (ligand, UniProt P48023 103-281, looked up)
chain: QLFHLQKELAELRESTSQMHTASSLEKQIGHPSPPPEKKELRKVAHLTGKSNSRSMPLEWEDTYGIVLLSGVKYKKGGLVINETGLYFVYSKVYFRGQSCNNLPLSHKVYMRNSKYPQDLVMMEGKMMSYCTTGQMWARSSYLGAVFNLTSADHLYVNVSELSLVNFEESQTFFGLYKL
notes: Immobilized on a CM5 chip by amine coupling and printed as 'FasLigand (monomer)'; also called Fas Ligand (Kamiya Biomedical Company)
B2: Fas/Fc chimera (R&D Systems) (Fc fusion, UniProt P25445 26-173, looked up)
chain: QVTDINSKGLELRKTVTTVETQNLEGLHHDGQFCHKPCPPGERKARDCTVNGDEPDCVPCQEGKEYTDKAHFSSKCRRCRLCDEGHGLEVEINCTRTQNTKCRCKPNFFCNSTVCEHCDPCTKCEHGIIKECTLTSNTKCKEEGSRSN
notes: The result line prints only 'Fas'; also called Pas/Fc chimera; Fc part of the bought chimera not given; not described

Tests used:
[1] = target: T1, FLINT (FAS Ligand Inhibitory Protein), …; experiment: SPR (Biacore 2000), FasLigand immobilized on CM5 chip, FLINT in solution
Procedure: (§1) FasL or the FLINT analog are immobilized through their primary amine group on lysine residues onto carboxymethyldextran polymer attached to a gold surface (Sensor Chip CM5). Immobilization is carried out using the amine coupling kit (Biacore) according to the manufacturer's protocol. Briefly, 100 µl of either FasL or FLINT analog solutions (10–25 µg/ml in sodium acetate buffer 20 mM, pH 5.0) is loaded onto an activated CM5 chip. After coupling, excess reactive groups on the surface are deactivated with 1M ethanolamine hydrochloride pH 8.5. The chip is then washed with a sodium acetate buffer 20 mM, pH 5.0 to remove non-covalently bound material.
(§2) To analyze the interaction between FasL and FLINT analogs, solutions containing the FLINT analogs are passed over the chip with PasL immobilized thereon. The amount of the FLINT analog associated with FasL is determined by measuring the surface plasmon resonance signal (in responce units, RU). Typically, FLINT analog solutions at different concentrations in HBS-ET buffer are loaded on the sensor chip for 10 minutes at a flow rate of 5 µl/min. […]
(§3) The data is evaluated and binding parameters determined using BIA evaluation 3.0.2 software (Biacore). The Kd for the interaction between FLINT and FasL and between FasL and Fas was determined using the protocols described above.

FasLigand (monomer) = target: B1; experiment: SPR (Biacore 2000), FasLigand immobilized on CM5 chip, Fas in solution
Procedure: as §1, §2, §3

Kd [1] [nM]	Kd (FasLigand (monomer)) [nM]	Binder
113		B1
	162	B2
